# Data from article PMC3589492, “Intersubunit Ionic Interactions Stabilize the Nucleoside Diphosphate Kinase of Mycobacterium tuberculosis” (PLoS ONE, 2013).
# B1: Nucleoside diphosphate kinase of Mycobacterium tuberculosis, wild type (enzyme)
# chain: MTERTLVLIKPDGIERQLIGEIISRIERKGLTIAALQLRTVSAELASQHYAEHEGKPFFGSLLEFITSGPVVAAIVEGTRAIAAVRQLAGGTDPVQAAAPGTIRGDFALETQFNLVHGSDSAESAQREIALWFPGA
# notes: Nucleoside diphosphate kinase, Mycobacterium tuberculosis; No tag is mentioned; also called Mt-NDPK; wt Mt-NDPK
# Legend:
# [1] = target: the molecule itself; assay: cell-based or functional assay
# [2] = target: the molecule itself; assay: SEC; Superose 12 column, 50 mM Hepes pH 7.4, 150 mM sodium chloride, 0.4 mL/min, calibrated with molecular weight markers
protein,measurement,setting,value
B1,"c1/2 of inactivation/unfolding in urea (10 µg/mL, 16 h)",[1],~5.2 M
same,stoichiometry N,[2],6
